B1: Protein transport protein DSL1 (Saccharomyces cerevisiae), P53847 (parent)
chain: MESLFPNKGEIIRELLKDPLILKNDSKRSNGSELELDSSDLLQREAILANELNILDNLKTFLNLIKEVKTNLNILELENCYYSLQSLRKKMRNNAAYLKQSFNFQQSISTYVDTLHLELVSTLYKILTNGFWKITENSIQFTPTVEWGKDKVHIEYDTFMDFVAQQYFPKGSLDNQAWFILDMTSADSQEQVRAKLNTIMKEYMNLSRIVSMIKNSIFISGKEISYENEKNILVFSKSSSHGQHCVSTVLTSFEAVCDFMLDGLAFRDRKTLSYELGPLFNTEFTKFVKNNASIILESLDSPLKNLVSVINNKLTRLVAKSEVTNWTHSGKEIQDLLMNKQLYYNLLLDKVLESHISEIRSIFEDPKKSWQNLEVVELTTSNTNTMSEKIGKNDSDVQNEKELHNAVSKDDDWNWEVEDDDADAWGDEIDVNIDDEEEKTNQEKEKEPEEEENAWDEAWAIDENIDDASLENGKEHLKAHDVGSLDKDHIEVTQLPKLFLAISQNFKSSFADSHVDEQYFAYKYNLLQTSYMAMCTANFSHNWCQLYVDMRYLIERDEKLYRIKELTRNLLETKLNMKYRIVCQLIRHQLTEFRENERNPSWDATIEKLLPYILKEIVRPLQKIRGEEGSRYLLSFLNFLYNDCVTKEILKWQIISEVNSENLGELVSLLVNNTDIQLLAKEPSYKKMREKFATMGKFLPLHLKEIMEMFYNGDFYLFATDELIQWIELLFADTPLRRNAIDDIYEIRGTALDD
partner: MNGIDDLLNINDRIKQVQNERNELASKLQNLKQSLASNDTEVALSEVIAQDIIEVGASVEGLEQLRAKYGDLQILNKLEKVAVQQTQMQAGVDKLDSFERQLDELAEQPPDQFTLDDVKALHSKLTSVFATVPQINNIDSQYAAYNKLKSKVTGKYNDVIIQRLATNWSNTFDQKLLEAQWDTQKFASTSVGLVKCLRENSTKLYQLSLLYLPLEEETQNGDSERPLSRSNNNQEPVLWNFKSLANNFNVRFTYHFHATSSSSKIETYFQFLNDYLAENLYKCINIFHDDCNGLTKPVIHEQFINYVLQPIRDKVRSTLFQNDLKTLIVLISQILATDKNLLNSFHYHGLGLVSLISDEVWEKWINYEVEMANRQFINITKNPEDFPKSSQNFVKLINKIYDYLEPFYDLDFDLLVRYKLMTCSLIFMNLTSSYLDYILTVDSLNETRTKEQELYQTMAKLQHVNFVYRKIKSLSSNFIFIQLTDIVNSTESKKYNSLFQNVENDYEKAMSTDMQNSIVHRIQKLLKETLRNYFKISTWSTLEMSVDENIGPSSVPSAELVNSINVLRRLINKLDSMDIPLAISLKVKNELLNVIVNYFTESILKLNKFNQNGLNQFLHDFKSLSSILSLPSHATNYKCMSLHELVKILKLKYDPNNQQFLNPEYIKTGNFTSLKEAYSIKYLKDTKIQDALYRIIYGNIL
B2: Protein transport protein TIP20 (Saccharomyces cerevisiae), P33891 (parent)
chain: B1 partner
partner: B1 chain

In one test the parent is B1. The following applies: with tip20_yeast TIP20, P33891.
For L48E, the “effect of a mutation on the interaction” value was “disrupting interaction”. On the same count and under the same terms, as for L58D, the entry is “disrupting interaction”; as for L55E, “disrupting interaction”.

Variants of B2 are the subject of a further test. To be noted: with dsl1_yeast DSL1, P53847.
For the variant V17E, the “effect of a mutation on the interaction” value is “disrupting interaction”. The same measure, in the same setting: as for I10D;L28E, the entry is “disrupting interaction”.
